Assay results as given in PMC3433420.
Blank lines part the entries; values can stand above or below the binder they belong to.

Columns and labels:
[1] = target: ErbB4 pY906 phosphopeptide, rhodamine-labelled (human); experiment: fluorescence polarisation; saturation binding in solution: rhodamine peptide fixed at 10 nM, protein titrated 0.002-10 uM, 20 min at room temperature; assay buffer 20 mM HEPES, 100 mM KCl, 0.1% Tween-20, 5 mM DTT, pH 7.8; apparent KD
[2] = target: phosphopeptides corresponding to ErbB2 intracellular tyrosine sites (human); experiment: fluorescence polarisation; saturation binding in solution; rhodamine-labeled peptide fixed at 10 nM, protein titrated 0.002-10 µM (twelve two-fold dilutions); 20 minutes at room temperature in the dark; assay buffer 20 mM HEPES, 100 mM KCl, 0.1% Tween-20, 5 mM DTT, pH 7.8; apparent KD; assay detection threshold of 20 µM
[3] = target: phosphopeptides corresponding to ErbB4 intracellular tyrosine sites (human); experiment: as above
[4] = target: phosphopeptides corresponding to ErbB1 intracellular tyrosine sites (human); experiment: as above
[5] = target: ErbB1 pY801 phosphopeptide, rhodamine-labelled (human); experiment: fluorescence polarisation; saturation binding in solution: rhodamine peptide fixed at 10 nM, protein titrated 0.002-10 uM, 20 min at room temperature; assay buffer 20 mM HEPES, 100 mM KCl, 0.1% Tween-20, 5 mM DTT, pH 7.8; apparent KD
[6] = target: MET pY1313 phosphopeptide, rhodamine-labelled; experiment: as above

- Kd [1]: 0.54 µM
B1: SHC3 SH2 domain (domain or fragment)
chain: WYQGEMSRKEAEGLLEKDGDFLVRKSTTNPGSFVLTGMHNGQAKHLLLVDPEGTIRTKDRVFDSISHLINHHLESSLPIVSAGSELCLQQPV

- Kd [2]: 1 µM
- Kd [3]: 1 µM
- Kd [4]: 1 µM
B2: GRAP2 SH2 domain (domain or fragment)
chain: WFHEGLSRHQAENLLMGKEVGFFIIRASQSSPGDFSISVRHEDDVQHFKVMRDNKGNYFLWTEKFPSLNKLVDYYRTNSISRQKQIFLRDRT

- Kd [5]: 5.35 µM
- Kd [6]: 5.89 µM
B3: TNS3 SH2 domain (domain or fragment)
chain: WYKADISREQAIAMLKDKEPGSFIVRDSHSFRGAYGLAMKVATPPPSVLQLNKKAGDLANELVRHFLIECTPKGVRLKGCSNEPYFGSLTALVCQHSITPLALPCKLLIPE

- Kd [6]: 17 µM
B4: VAV2 SH2 domain (domain or fragment)
chain: WFAGNMERQQTDNLLKSHASGTYLIRERPAEAERFAISIKFNDEVKHIKVVEKDNWIHITEAKKFDSLLELVEYYQCHSLKESFKQLDTTLKYPY
